The data set deals with T1, PfuEndoQ (PF1551) (Pyrococcus furiosus, UniProt Q8U0N5 1-424).
T1 sequence: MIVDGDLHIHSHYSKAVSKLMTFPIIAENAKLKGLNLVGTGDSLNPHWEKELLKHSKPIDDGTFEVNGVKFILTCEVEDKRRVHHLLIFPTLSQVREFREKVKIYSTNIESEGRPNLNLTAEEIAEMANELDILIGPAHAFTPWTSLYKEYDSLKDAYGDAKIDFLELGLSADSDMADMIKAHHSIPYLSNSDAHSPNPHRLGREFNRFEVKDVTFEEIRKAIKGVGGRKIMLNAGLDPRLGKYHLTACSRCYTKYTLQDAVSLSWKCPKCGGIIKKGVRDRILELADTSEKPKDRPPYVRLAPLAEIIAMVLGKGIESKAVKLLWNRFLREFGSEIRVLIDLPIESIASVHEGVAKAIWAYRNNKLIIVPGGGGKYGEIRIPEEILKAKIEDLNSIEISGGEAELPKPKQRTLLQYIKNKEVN
Nature of the data set: EMSA; 1 mM Mg2+; 60 C; EMSA: 50 mM Tris-HCl pH 8.0, 1 mM MgCl2, 1 mM DTT, 0.01% Tween 20, 60 C 10 min, 5 nM DNA, 0-50 nM protein; 4% PAGE in TBE. Particulars: protein: recombinant; tags: none (untagged; native stop codon in the reverse primer, pET21d); blunt.

B1: 45N dsDNA (normal duplex) (dsDNA)
DNA 1: CGAACTGCCTGGAATCCTGACGACATGTAGCGAACGATCACCTCA
DNA 2: TGAGGTGATCGTTCGCTACATGTCGTCAGGATTCCAGGCAGTTCG
As for B1, the binding result is listed as “no binding”.

Source of the values: publication PMC4357722, “A novel endonuclease that may be responsible for damaged DNA base repair in Pyrococcus furiosus”.
